# Assay: yeast display, Sf9 membrane polyspecificity reagent, FACS + sequencing; frameworks hold sequencing errors
# Procedure, shortened: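 Galactose induction of a Saccharomyces cerevisiae BJ5465 synthetic nanobody display library ran 36–48 hours. The cells were then stained for 1 hour at 4 °C with 10% biotinylated, detergent-solubilized Sf9 membrane reagent, pulled down on streptavidin microbeads and FACS-sorted into low and high (top ~1%) gates on expression and reagent-binding fluorescence. Labels for polyreactivity follow the gate of origin.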
row,Sequence,polyreactivity (PSR sort gate)
1,QVQLVESGGGLVQAGGSLRISCAASGLTFTSNVMGWYRQAPGKERELVAAISSGGSTYYADSVKGRFTISRDNAKNTVYLQMNSLKPEDTAVYYCNTKLWGQYDYWGQGTQVTVSS,low polyreactivity
2,QVQLVESGGGLVQAGGSLRISCAASGLTFYYNAMGWYRQAPGKDRELVATITWRGGRTYYADSVKGRFTISRDNAKNTVYLQMNCLKPEDTAVYYCAAGYFSQRLYLWFGYWGQGTQVTVSS,high polyreactivity
3,QVQLVESGGGLVQAGGSLRISCAASGNIFYRNGMGWYRQAPGKEREFVAAISRRGGSTYYADSVKGRFTISRDNAKNTVYLQMNSLKTEDTAVYYCATRYWPTNKGEYWGQGTQLTVSS,high polyreactivity
4,QVQLVESGGGLVQAGGSLRISCAASGNTFEHNAMGWYRQAPGKERELVAVISKSGGRTYYADSVKGRFTISRDNAKNTVYLQMNSLKPEDTAVYYCAKRSPFITWNGISYVEYDYWGPGTQVTVSS,low polyreactivity
5,QVQLVESGGGLVQAGGSLRISCAASGNTFGDYAMGWYRQAPGKERELVAAISRSGGSTSYADSVKGRFTISRDNAKNTVYLQMNSLKPEDTAVYYCAGYWQRFGYDYWGQGTLVTVSS,low polyreactivity
6,QVQLVESGGGLVQAGGSLRISCAASGRICIYYTMGWYRQAPGKDREFVAAITYSGGSTRYADSVKGRFTISRDNAKNTVYFQMNSLKTEVTAVYYCAAKFSVRRGFDYWGQGTQVTVSS,low polyreactivity
7,QVQLVESGGGLVQAGGSLRISCAASGRIFDYYAMGWYRQAPGKERELVAAISYSGGSTHYADSVKGRFTISRDNAKNTVYLQMNSLKPEDTAVYYCAGWAWSGVEYDYWGQGTQVTVSS,low polyreactivity
8,QVQLVESGGGLVQAGGSLRISCAASGRIFFTYVKGWYRQAPGKERELVATIRVSGGSTYYADSVKGRYTISRDNAKKTVYLQMNSLKPEDTAVYYCAASGAWWSLHYAGDFWGQGTQVTVSS,high polyreactivity
9,QVQLVESGGGLVQAGGSLRISCAASGRIFGYYGMGWSRQAPGKERELVAAITSNAGRTYYADSVKGRFTISRDNSKNTVYLQMNSLKPEDTAVYYCAATSKGSYGRQGYDYWGQGTQVTVSS,low polyreactivity
10,QVQLVESGGGLVQAGGSLRISCAASGRIFIYNAMGWYRQAPGKERELVAAINRSGVSTHYADSVKGRFTISRDNAKNTVYLQMNSLIPEDTAVYYCARTVYGARSYDYWGQGTQVTVSS,low polyreactivity
11,QVQLVESGGGLVQAGGSLRISCAASGRIFLRNDMGWYRQAPGKERELVAGISSDGSTYYADSVKGRFTISRDNAKNTVYLQMNSLKPEDTAVYYCAAERWGNPTDYQFWRPYDYWGQGTQVTVSS,low polyreactivity
12,QVQLVESGGGLVQAGGSLRISCAASGRIFQHYAMGWYRQAPGKERELVAAISWRGGSTYYADSVKGRFTISRDNAKNTVFLLMNSLKPEDTAVYYCAAGYRGRIPGFDYWGQGTQVTVSS,high polyreactivity
13,QVQLVESGGGLVQAGGSLRISCAASGRIFSYNAMGWYRQAPGKERELVAAITTGGSTYYADSVKGRFTISRDNAKNTVYLQMNSLKPEDTAVYYSIKLGYYYDRRYDYWGQGTQVNVSS,high polyreactivity
14,QVQLVESGGGLVQAGGSLRISCAASGRTFAFYAMGRYRQAPGKERELVACISSSGDRTYYADSVKGRFTISRDNAKNTVYLQMNSLKPEDTAVYYCAARWRYTYYYWGQGTQVTVSS,high polyreactivity
15,QVQLVESGGGLVQAGGSLRISCAASGRTFPVNAMGWYRQAPGKERELVAAITWSGDSTYYADSVKGRFTISCDNAKNTVYLQMNSLKPEDTAVYYCAAAYRYGTLYYYWGQGTQVTVSS,low polyreactivity
16,QVQLVESGGGLVQAGGSLRISCAASGRTFPWYAMGWYRPAPGKERELVADITWSGGSTYYADSVKGRFTISRDNAKNTVYLQMNSLKPEDTAVYYCATRVLFWYRKYPGRPLTKYDYWGQGTQVTVSS,high polyreactivity

row,Sequence,polyreactivity (PSR sort gate)
1,QVQLVESGGGLVQAGGSLRISCAASGRTFRFYVMGWYRKAPGKERELVAAISRGGGSTYYADSVKGRFTISRDNAKNTVYLQMNSLKPEDTAVYYCNAVTSGKKYVADYNYWGQGTQVTVSS,high polyreactivity
2,QVQLVESGGGLVQAGGSLRISCAASGRTFRTYAMGWYRQAPGKERELVAAISYSDGSTYYADSVKGRFTISRDNAKNTVYLQMNSLKPEDTAVYYCAIEYEDPYYIRYQVGYDFDYWGQGTQVTVSS,low polyreactivity
3,QVQLVESGGGLVQAGGSLRISCAASGRTFRWYAMGWYRQAPGKERELVAAISWNGGSTYYADSVKGRFTISRDNAKNTVYLQMNSLKPEDTAVYYCAVKAGPSRPYYSWGQGTQVTVSS,high polyreactivity
4,QVQLVESGGGLVQAGGSLRISCAASGRTFYPYAMGWYRQAPGKEREFVAAITLTGDSTYYADSVKGRFTISRDNAKNTVYLQMNSLKPEDTAVYYCNAGVGARESDYWGQGTQLTVSS,low polyreactivity
5,QVQLVESGGGLVQAGGSLRISCAASGRTFYWYAMGWYRQAPGKERELVAAISAGGGRTYCADSVKGRFTISRDNAKNTVYLQMNSLKPEDTAVYYCAADFQRGAKYTYDFWGQGTQVTVSS,high polyreactivity
6,QVQLVESGGGLVQAGGSLRISCAASGSICNINAMGWYRQAPGKERELVAPISQSDGSTYYADSVKGRFTISRDNAKNTVYLQMNSLKPEDTAVYYCSADAYVLFYGDWYEFDYWGQGTQVTVSS,high polyreactivity
7,QVQLVESGGGLVQAGGSLRISCAASGSIFAWNAMGWYRQAPGKERELVAAISRSGGRTYYADSVKGRFTISRDNAKNTVYLQMNSLKPEDTAVYYCNAYGLRWASRLGYDYWGQGTQVTVSS,high polyreactivity
8,QVQLVESGGGLVQAGGSLRISCAASGSIFEQYAMAWYRQAPGKERELVAAISKRGTSTYYAVSVKGRFTISRDNAKNTVYLQMNCLKPEDTAVYYCAATNRWYYRDAAAVYAFGYWGQGTQVTVSS,high polyreactivity
9,QVQLVESGGGLVQAGGSLRISCAASGSIFGVYAMGWYRQAPGKERELVAAIRSGGRTYYADSVKGRFTISRDNAKNTVYLQMNSLKPEDTAVYYCNAAFSSRVGRVQFYDYDYWGQGTQVTVSW,high polyreactivity
10,QVQLVESGGGLVQAGGSLRISCAASGSIFLSNMGWYRQAPGNERELVAAITIGGSTDYADSVKGRFTISRDNAKNTVYLQMNSLKPEDTAVYYCNADNPYSDGADSLGNYWGQGTQVTVSS,low polyreactivity
11,QVQLVESGGGLVQAGGSLRISCAASGSIFNIYAMGWSRQAPGKERELVATITGIADSTYYADSVKGRFTISRDNAKNTVNFQMNSLKPEDTAVYYCAARRTRVTGRYSVYAFDYWGQGTQVTVSS,low polyreactivity
12,QVQLVESGGGLVQAGGSLRISCAASGSIFRSNAMGWYRQAPGKEREMVAAISSSGGSTYYADSVKGRFTISRDNAKNTVYFQMNSLKPEDTAVYYCAAEVLSSDLFRPDSIVDYWGQGTQVNVSS,low polyreactivity
13,QVQLVESGGGLVQAGGSLRISCAASGSIFYYYDMGWYRQAPGKERELVASISRGGRTYYADSVKGRFTISRDNAMNTVYLQMNSLKPEDTAVYYCAAGYYIRYYGIMDYWGQGTQVTVSS,high polyreactivity
14,QVQLVESGGGLVQAGGSLRISCAASGSILVFYAMGWYRQAPGKESELVATITGSVGRTSYADSVKGRFTISRDNAKNTVYLQMNSLIPEDTAVYYCAADADTDVFYILQEYDYWGQGTQVTVSS,low polyreactivity
15,QVQLVESGGGLVQAGGSLRISCAASGSNFSYYAMGWYRQAPGKEREFVAAISWSGGSTYYADSVKGRFTISRDNAKNTVYLQMNSLKPEDTAVYYCAAELSLSWLVPEVPYYYWGQGTQVTGSS,low polyreactivity
